Measurements reported in publication PMC10019781, “Structure and function of Plasmodium actin II in the parasite mosquito stages” (PLOS Pathogens, 2023).

Tests used:
[1] = molecular target: the molecule itself; assay: dynamic light scattering; non-polymerizing conditions; 1.3 mg/ml, 70 ul, 4°C
[2] = molecular target: the molecule itself; assay: dynamic light scattering; polymerizing conditions, without JAS; 1.3 mg/ml, 70 ul, 4°C

Protein	stoichiometry N [1]	stoichiometry N [2]
Plasmodium falciparum actin II (natural protein, methyl-histidine at H73 (around 90% of actin II when expressed in insect cells), actin II of Plasmodium falciparum, PlasmoDB PF3D7_1412500; gene synthesized and codon-optimized for insect cells; In the pyrene assays (critical concentration, polymerization) a mixture of pyrene-labelled and unlabelled actin (ratio 1:3) was used; The first four N-terminal residues are not resolved in the filament maps; also called PfActII; F-actin II; source: Sf9 (Spodoptera frugiperda) cells, …) not shown	2	
Plasmodium actin I (natural protein, actin I of Plasmodium; its cited filament structures are of P. falciparum actin I; in the pyrene assays a mixture of pyrene-labelled and unlabelled actin was used; also called F-actin I) not shown		2
